Results published in the supplement of paper PMC9112550, “Optimization of the antimicrobial peptide Bac7 by deep mutational scanning” (BMC Biology, 2022).

tested on: Escherichia coli TOP10; test: shrunken log2 fold change of peptide-encoding DNA abundance (4.5 h post-induction vs induction); higher = less antimicrobial activity (less host growth inhibition); details: time post-induction: 4.5 h; library: site-saturation at positions 5, 18, 19, 20
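Further: peptides expressed intracellularly from a pBAD plasmid library in pooled LB shake-flask culture, induced with 0.3% L-arabinose, DNA abundance read by NGS, three biological replicates, DESeq2 with apeglm shrinkage.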

Sequence | shrunken log2 fold change
RRIRSRPPRLPRPRPRPTELPRP | -0.0967
RRIRSRPPRLPRPRPRPTETPRP | 0.0721
RRIRSRPPRLPRPRPRPTGEPRP | 0.0361
RRIRSRPPRLPRPRPRPTHWPRP | 0.451
RRIRSRPPRLPRPRPRPTIRPRP | 0.0218
RRIRSRPPRLPRPRPRPTIVPRP | 0.148
RRIRSRPPRLPRPRPRPTKAPRP | 0.266
RRIRSRPPRLPRPRPRPTKNPRP | 0.168
RRIRSRPPRLPRPRPRPTKTPRP | -0.0829
RRIRSRPPRLPRPRPRPTKVPRP | -0.213
RRIRSRPPRLPRPRPRPTLEPRP | 0.474
RRIRSRPPRLPRPRPRPTLMPRP | 0.091
RRIRSRPPRLPRPRPRPTLQPRP | 0.128
RRIRSRPPRLPRPRPRPTMDPRP | -0.262
RRIRSRPPRLPRPRPRPTMVPRP | 0.0872
RRIRSRPPRLPRPRPRPTNLPRP | -0.215
RRIRSRPPRLPRPRPRPTPTPRP | 0.676
RRIRSRPPRLPRPRPRPTQIPRP | 0.048
RRIRSRPPRLPRPRPRPTRRPRP | 0.109
RRIRSRPPRLPRPRPRPTSKPRP | 0.0753
RRIRSRPPRLPRPRPRPTTSPRP | 0.094
RRIRSRPPRLPRPRPRPTYEPRP | -0.328

Sequence | shrunken log2 fold change
RRIRSRPPRLPRPRPRPTYGPRP | -0.303
RRIRSRPPRLPRPRPRPVATPRP | 0.707
RRIRSRPPRLPRPRPRPVDAPRP | 0.0786
RRIRSRPPRLPRPRPRPVECPRP | -0.0425
RRIRSRPPRLPRPRPRPVEVPRP | 0.233
RRIRSRPPRLPRPRPRPVGIPRP | -0.012
RRIRSRPPRLPRPRPRPVISPRP | 0.141
RRIRSRPPRLPRPRPRPVIVPRP | -0.191
RRIRSRPPRLPRPRPRPVKRPRP | 0.26
RRIRSRPPRLPRPRPRPVKTPRP | -0.0806
RRIRSRPPRLPRPRPRPVKVPRP | 0.0828
RRIRSRPPRLPRPRPRPVMIPRP | -0.0753
RRIRSRPPRLPRPRPRPVMRPRP | 0.594
RRIRSRPPRLPRPRPRPVNNPRP | -0.363
RRIRSRPPRLPRPRPRPVQSPRP | -0.0536
RRIRSRPPRLPRPRPRPVRLPRP | 0.196
RRIRSRPPRLPRPRPRPVRNPRP | 0.0299
RRIRSRPPRLPRPRPRPVTKPRP | -0.00403
RRIRSRPPRLPRPRPRPVTPPRP | 0.0877
RRIRSRPPRLPRPRPRPVVNPRP | 0.0966
RRIRSRPPRLPRPRPRPVVTPRP | 0.021
RRIRSRPPRLPRPRPRPVVYPRP | -0.0697

Sequence | shrunken log2 fold change
RRIRSRPPRLPRPRPRPVWKPRP | -0.1
RRIRSRPPRLPRPRPRPVYCPRP | -0.138
RRIRSRPPRLPRPRPRPVYYPRP | -0.71
RRIRSRPPRLPRPRPRPWALPRP | -0.0699
RRIRSRPPRLPRPRPRPWCKPRP | 0.149
RRIRSRPPRLPRPRPRPWDFPRP | -0.224
RRIRSRPPRLPRPRPRPWETPRP | -0.0029
RRIRSRPPRLPRPRPRPWFLPRP | -0.565
RRIRSRPPRLPRPRPRPWGWPRP | 0.0685
RRIRSRPPRLPRPRPRPWHSPRP | -0.0018
RRIRSRPPRLPRPRPRPWHVPRP | -0.0882
RRIRSRPPRLPRPRPRPWILPRP | -0.0844
RRIRSRPPRLPRPRPRPWNWPRP | -0.328
RRIRSRPPRLPRPRPRPWPGPRP | -0.139
RRIRSRPPRLPRPRPRPWPLPRP | -0.293
RRIRSRPPRLPRPRPRPWPRPRP | 0.646
RRIRSRPPRLPRPRPRPWQIPRP | 0.0843
RRIRSRPPRLPRPRPRPWQLPRP | -0.018
RRIRSRPPRLPRPRPRPWQNPRP | -0.194
RRIRSRPPRLPRPRPRPWRDPRP | 0.0985
RRIRSRPPRLPRPRPRPWRLPRP | 0.0899
RRIRSRPPRLPRPRPRPWTIPRP | -0.133

Sequence | shrunken log2 fold change
RRIRSRPPRLPRPRPRPWTLPRP | -0.0934
RRIRSRPPRLPRPRPRPWYGPRP | -0.933
RRIRSRPPRLPRPRPRPYCAPRP | -0.698
RRIRSRPPRLPRPRPRPYFDPRP | -0.597
RRIRSRPPRLPRPRPRPYFGPRP | -0.642
RRIRSRPPRLPRPRPRPYGHPRP | -0.00193
RRIRSRPPRLPRPRPRPYHLPRP | -0.415
RRIRSRPPRLPRPRPRPYILPRP | -0.69
RRIRSRPPRLPRPRPRPYIWPRP | -0.108
RRIRSRPPRLPRPRPRPYKFPRP | -0.15
RRIRSRPPRLPRPRPRPYKNPRP | -0.399
RRIRSRPPRLPRPRPRPYLKPRP | -0.0359
RRIRSRPPRLPRPRPRPYLTPRP | -0.429
RRIRSRPPRLPRPRPRPYPHPRP | -0.227
RRIRSRPPRLPRPRPRPYPPPRP | -0.377
RRIRSRPPRLPRPRPRPYPSPRP | -0.203
RRIRSRPPRLPRPRPRPYPVPRP | -0.0856
RRIRSRPPRLPRPRPRPYPYPRP | -0.646
RRIRSRPPRLPRPRPRPYQDPRP | 0.0107
RRIRSRPPRLPRPRPRPYQWPRP | 0.0794
RRIRSRPPRLPRPRPRPYRHPRP | -0.542
RRIRSRPPRLPRPRPRPYSFPRP | -0.795

Sequence | shrunken log2 fold change
RRIRSRPPRLPRPRPRPYSQPRP | -0.0604
RRIRSRPPRLPRPRPRPYTPPRP | -1.07
RRIRSRPPRLPRPRPRPYTTPRP | -0.0205
RRIRSRPPRLPRPRPRPYTYPRP | -0.0783
RRIRSRPPRLPRPRPRPYVIPRP | -0.292
RRIRSRPPRLPRPRPRPYVRPRP | -0.0846
RRIRTRPPRLPRPRPRPAAFPRP | -0.128
RRIRTRPPRLPRPRPRPAATPRP | 0.247
RRIRTRPPRLPRPRPRPADLPRP | 0.0274
RRIRTRPPRLPRPRPRPAEFPRP | -0.355
RRIRTRPPRLPRPRPRPAENPRP | 0.0214
RRIRTRPPRLPRPRPRPAFEPRP | 0.219
RRIRTRPPRLPRPRPRPAFHPRP | 0.0779
RRIRTRPPRLPRPRPRPAGDPRP | 0.258
RRIRTRPPRLPRPRPRPAHDPRP | 0.268
RRIRTRPPRLPRPRPRPAHMPRP | -0.0928
RRIRTRPPRLPRPRPRPAIGPRP | 0.1
RRIRTRPPRLPRPRPRPAITPRP | -0.44
RRIRTRPPRLPRPRPRPAKDPRP | -0.399
RRIRTRPPRLPRPRPRPAKPPRP | 0.583
RRIRTRPPRLPRPRPRPAMTPRP | 0.126
